Legend:
[1] = tested on: CCCCc1nc(Cl)c(CO)n1Cc1ccc(-c2ccccc2-c2nn[nH]n2)cc1; assay: TP_TRANSPORTER: transepithelial transport (basal to apical) in MDR1-expressing MDCK cells; format: functional, cell-based
[2] = tested on: CCCCc1nc(Cl)c(CO)n1Cc1ccc(-c2ccccc2-c2nn[nH]n2)cc1; assay: TP_TRANSPORTER: transepithelial transport (basal to apical) in Caco-2 cells; format: functional, cell-based

ATP-dependent translocase ABCB1 (Homo sapiens)
Km [1]: 403 µM | Km [2]: 232 µM
